Here are results for one substance from paper PMC10182306.

For this experiment, the target named is human platelet actin (human) (UniProt P60709). As to the kind of experiment: co-sedimentation.

“α-actinin (from UniProt P12814 1-892) (natural protein)” returned a percent of input pelleted with F-actin of 77%.
